Data as given in doi:10.1101/718155.

Key:
[1] = target: C-ERMAD (516-560 and 516-586) peptide (UniProt P15311); assay: FP
[2] = target: S100A2; assay: FP
[3] = target: S100A4; assay: FP
[4] = target: S100A6; assay: FP
[5] = target: S100P; assay: FP
[6] = target: S100A1; assay: FP
[7] = target: S100A11; assay: FP
[8] = target: S100A3; assay: FP
[9] = target: S100A5; assay: FP
[10] = target: S100A4; assay: ITC
[11] = target: S100A14; assay: FP
[12] = target: S100A15; assay: FP
[13] = target: S100A7; assay: FP
[14] = target: S100G; assay: FP

p53 (1-60; 17-53) peptide, sequence (P04637 1-60): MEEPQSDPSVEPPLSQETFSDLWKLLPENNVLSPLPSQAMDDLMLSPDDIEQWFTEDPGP
C-ERMAD (516-560 and 516-586) peptide (from UniProt P15311 516-586), sequence (P15311 516-586): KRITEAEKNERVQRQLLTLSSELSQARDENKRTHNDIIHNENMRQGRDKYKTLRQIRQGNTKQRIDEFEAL
C-ERMAD (516-560 and 516-586) peptide (UniProt P15311), sequence (P15311 516-586): as above

| Substance | Kd [2] | Kd [3] | Kd [4] | Kd [5] | further results |
| --- | --- | --- | --- | --- | --- |
| S100A2 | – | – | – | – | Kd [1]: 15 µM |
| MNK1 | 18 µM | 24 µM | 6.7 µM | 2.5 µM | – |
| S100A4 | – | – | – | – | Kd [1]: 11 µM |

The next lines start with results.

| Kd [2] | Kd [3] | Kd [4] | Kd [5] | Substance | further results |
| --- | --- | --- | --- | --- | --- |
| 4.5 µM | – | – | 2.7 µM | MK2 | Kd [6]: 15 µM |
| 5.2 µM | 2.1 µM | 2.2 µM | – | p53 (1-60; 17-53) peptide (from UniProt P04637 1-60) | Kd [7]: 12 µM; Kd [8]: 7.7 µM; Kd [9]: 67 µM |
| 5.4 µM | 6.1 µM | – | – | C-ERMAD (516-560 and 516-586) peptide (from UniProt P15311 516-586) | Kd [10]: 35 µM |
| 0.27 µM | 2 µM | 0.007 µM | 1.2 µM | FOR20 | Kd [11]: 63 µM; Kd [12]: 17 µM; Kd [6]: 0.5 µM; Kd [8]: 29 µM; Kd [9]: 1.9 µM; Kd [13]: 5.9 µM; Kd [14]: 3.8 µM |
